The text below walks through data of US20120058906A1 (published 2012).

The target of test [1] is T1, rHuman Erythropoietin R/Fc Chimera, CF (R&D Systems Cat#963-ER) (human, UniProt P19235 25-250).
T1 construct: Bought protein; also called EPOR; EPO R/Fc; Fc part of the bought chimera not given
T1 sequence: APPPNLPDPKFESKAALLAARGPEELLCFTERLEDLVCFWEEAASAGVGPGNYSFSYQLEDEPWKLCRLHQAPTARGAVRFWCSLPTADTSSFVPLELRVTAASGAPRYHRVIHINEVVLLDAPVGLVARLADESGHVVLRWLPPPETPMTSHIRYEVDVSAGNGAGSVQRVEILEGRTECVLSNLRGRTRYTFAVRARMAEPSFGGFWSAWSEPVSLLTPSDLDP
Description: MSD ECL multi-spot assay, antigen spotted on plate, Fab 0.36 uM; blank spot 1948.

Test [2] has as its target T2, rHuman IGF-1 sR (IGF-1 sR), CF (R&D Systems Cat#391-GR) (human, UniProt P08069 31-932).
T2 construct: Bought soluble receptor; also called insulin-like growth factor-1 soluble receptor; IGF-R1
Described as above.

Test [3] addresses T3, rHuman ErbB2/Fc Chimera, CF (R&D Systems Cat#1129-ER) (human, UniProt P04626 23-652).
T3 construct: Bought protein; also called HER2/neu; human epidermal growth factor 2 receptor; Fc part of the bought chimera not given
The test is described as above.

Test [4] deals with T4, rHuman HGF R/c-MET/Fc Chimera, CF (R&D Systems Cat#358-MT/CF) (human, UniProt P08581 25-932).
T4 construct: Bought protein; also called HGF R/Fc; hepatocyte growth factor receptor; Fc part of the bought chimera not given
Described as above.

The target in test [5] is T5, rHuman P-Cadherin/Fc Chimera, CF (R&D Systems Cat#861-PC) (human, UniProt P22223 108-654).
T5 construct: Bought protein; also called CDH3; Fc part of the bought chimera not given
The description is as above.

The target of test [6] is T6, rHuman CD44/Fc Chimera, CF (R&D Systems Cat#3660-CD) (human, UniProt P16070 21-220).
T6 construct: Bought protein; Fc part of the bought chimera not given
The description is as above.

Test [7] addresses T7, Recombinant Human DLL4 (delta-like protein 4) (human, UniProt Q9NR61 27-524).
T7 construct: Bought (R&D Systems Cat#1506-D4/CF); also called rHuman DLL4
The test is described as follows: SPR, Fab on recombinant human DLL4.

Test [8] has as its target T7, Recombinant Human DLL4 (delta-like …). The test is described as follows: SPR, Fab on recombinant human DLL4; standard deviation in parentheses.
Test [9] deals with T8, rHuman Notch-1/Fc Chimera, CF (R&D Systems Cat#3647-TK) (human, UniProt P46531 19-526).
T8 construct: Bought Fc chimera; Fc part of the bought chimera not given
Description: ECL (MSD Multi-Spot) binding, antigen spotted on plate, Fab at 62.5 nM; blank spot 268.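 Also: blank spot per well as comparator with Hit at signal to blank ratio of 4 or more.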

The target in test [10] is T9, rHuman Erythropoietin R/Fc Chimera, CF (R&D Systems Cat#963-ER) (human, UniProt P19235 25-250).
T9 construct: Bought Fc chimera; also called EPO R/Fc; Epo R; Fc part of the bought chimera not given
T9 sequence: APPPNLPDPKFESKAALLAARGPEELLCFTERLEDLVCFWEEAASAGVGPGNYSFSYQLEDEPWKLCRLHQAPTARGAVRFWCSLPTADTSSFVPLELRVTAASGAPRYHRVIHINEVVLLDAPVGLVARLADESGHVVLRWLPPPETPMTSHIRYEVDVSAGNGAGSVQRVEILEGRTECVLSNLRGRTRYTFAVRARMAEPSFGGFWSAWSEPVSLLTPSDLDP
The description is as above.

Test [11] addresses T10, rHuman IGF-1 sR (IGF-1 sR), CF (R&D Systems Cat#391-GR) (human, UniProt P08069 31-932).
T10 construct: Bought soluble receptor; also called insulin-like growth factor-1 soluble receptor; IGF-R1
The test is described as above.

In test [12] the target is T8, rHuman Notch-1/Fc Chimera, CF (R&D …). Description: ECL (MSD Multi-Spot) binding, antigen spotted on plate, Fab at 15.6 nM; blank spot 294.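 Also: blank spot per well as comparator with Hit at signal to blank ratio of 4 or more.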
In test [13] the target is T9, rHuman Erythropoietin R/Fc Chimera, CF …. The description is as above.
For test [14], the target named is T10, rHuman IGF-1 sR (IGF-1 sR), CF (R&D …). The test is described as above.
The target in test [15] is T8, rHuman Notch-1/Fc Chimera, CF (R&D …). The test is described as follows: ECL (MSD Multi-Spot) binding, antigen spotted on plate, Fab at 7.8 nM; blank spot 316.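 Also: blank spot per well as comparator with Hit at signal to blank ratio of 4 or more.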
Test [16] has as its target T9, rHuman Erythropoietin R/Fc Chimera, CF …. The description is as above.
Test [17] deals with T10, rHuman IGF-1 sR (IGF-1 sR), CF (R&D …). The description is as above.
The target in test [18] is T8, rHuman Notch-1/Fc Chimera, CF (R&D …). The test is described as follows: ECL (MSD Multi-Spot) binding, antigen spotted on plate, Fab at 1000 nM; blank spot 1133.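 Also: blank spot per well as comparator with Hit at signal to blank ratio of 4 or more.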
The target of test [19] is T9, rHuman Erythropoietin R/Fc Chimera, CF …. Described as above.
For test [20], the target named is T10, rHuman IGF-1 sR (IGF-1 sR), CF (R&D …). Described as above.
For test [21], the target named is T8, rHuman Notch-1/Fc Chimera, CF (R&D …). Description: ECL (MSD Multi-Spot) binding, antigen spotted on plate, Fab at 125 nM; blank spot 403.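 Also: blank spot per well as comparator with Hit at signal to blank ratio of 4 or more.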
Test [22] has as its target T9, rHuman Erythropoietin R/Fc Chimera, CF …. The test is described as above.
Test [23] deals with T10, rHuman IGF-1 sR (IGF-1 sR), CF (R&D …). Described as above.
In test [24] the target is T8, rHuman Notch-1/Fc Chimera, CF (R&D …). Description: ECL (MSD Multi-Spot) binding, antigen spotted on plate, Fab at 250 nM; blank spot 590.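 Also: blank spot per well as comparator with Hit at signal to blank ratio of 4 or more.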
For test [25], the target named is T9, rHuman Erythropoietin R/Fc Chimera, CF …. Described as above.
Test [26] concerns the target T10, rHuman IGF-1 sR (IGF-1 sR), CF (R&D …). Described as above.
Test [27] has as its target T8, rHuman Notch-1/Fc Chimera, CF (R&D …). The test is described as follows: ECL (MSD Multi-Spot) binding, antigen spotted on plate, Fab at 500 nM; blank spot 680.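 Also: blank spot per well as comparator with Hit at signal to blank ratio of 4 or more.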
Test [28] addresses T9, rHuman Erythropoietin R/Fc Chimera, CF …. The description is as above.
The target in test [29] is T10, rHuman IGF-1 sR (IGF-1 sR), CF (R&D …). The description is as above.
Test [30] has as its target T8, rHuman Notch-1/Fc Chimera, CF (R&D …). Description: ECL (MSD Multi-Spot) binding, antigen spotted on plate, Fab at 31.3 nM; blank spot 250.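 Also: blank spot per well as comparator with Hit at signal to blank ratio of 4 or more.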
Test [31] addresses T9, rHuman Erythropoietin R/Fc Chimera, CF …. The description is as above.
Test [32] has as its target T10, rHuman IGF-1 sR (IGF-1 sR), CF (R&D …). Described as above.

B1: Fab VH4-28_IGHD7-27*01_IGHJ1*01 & L2_IGKJ1*01 (Fab, V domains shown)
VH: QVQLQESGPGLVKPSDTLSLTCAVSGYSISSSNWWGWIRQPPGKGLEWIGYIYYSGSTYYNPSLKSRVTMSVDTSKNQFSLKLSSVTAVDTAVYYCARTNWGAEYFQHWGQGTLVTVSS
VL: not shown
In the case of B1, the ECL signal in test [1] amounted to 19400; in test [2] it was 1700; in [3] it was 2030; in test [4], 2030; in [5] it was 2740; in test [6], 2480.

B2: Fab VH5-51_IGHD5-18*01>3_IGHJ4*01_G100K_G104T & V3-4_IGLJ1*01 (Fab, V domains shown)
VH: EVQLVQSGAEVKKPGESLKISCKGSGYSFTSYWIGWVRQMPGKGLEWMGIIYPGDSDTRYSPSFQGQVTISADKSISTAYLQWSSLKASDTAMYYCARRKYSYTYDYFDYWGQGTLVTVSS
VL: QTVVTQEPSFSVSPGGTVTLTCGLSSGSVSTSYYPSWYQQTPGQAPRTLIYSTNTRSSGVPDRFSGSILGNKAALTITGAQADDESDYYCVLYMGSGISYVFGTGTKVTVL
notes: Modified anti-DLL4 Fab; lambda Plasmid E)
For B2, the koff in [7] was found to be 0.023 s⁻¹. Also, in test [8], the Kd came to 355 nM and the kon was 64500 M⁻¹ s⁻¹.

B3: Fab VH1-46_IGHD6-13*01_IGHJ4*01 & B3_IGKJ1*01 (Fab, V domains shown)
VH: QVQLVQSGAEVKKPGASVKVSCKASGYTFTSYYMHWVRQAPGQGLEWMGIINPSGGSTSYAQKFQGRVTMTRDTSTSTVYMELSSLRSEDTAVYYCAREGYSSSWYDYFDYWGQGTLVTVSS
VL: not shown
notes: Tested as a Fab made in E. coli: VH joined to the CH1 of Plasmid A (with Flag and His tags), VL joined to the kappa constant region of Plasmid C; also called VH1-46_IGHD6-13*01_IGH41*01 & B3_IGKJ1*01
Consider B3, for which the ECL signal was determined as 536 in [9]; 7750 in test [10]; 491 in test [11]; 418 in test [12]; 8360 in test [13]; 349 in test [14]. Further, the ECL signal in test [15] stood at 486; in test [16] it was 6760; in [17], 353; in [18] it was 2270; in test [19], 8590; in [20] it was 1670. In addition, the ECL signal was 802 in test [21]; 9240 in test [22]; 654 in test [23]; 1240 in test [24]; 8540 in test [25]; 993 in test [26]. For the same molecule, the ECL signal in [27] was 1980; in test [28], 10300; in test [29], 1330; in test [30], 563; in test [31] it was 7880; in test [32] it was 385.
